Experiment: yeast display, Sf9 membrane polyspecificity reagent, FACS + sequencing; frameworks hold sequencing errors
In short: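 In a synthetic yeast display library (Saccharomyces cerevisiae BJ5465), nanobody expression was induced with galactose for 36–48 hours. FACS gates were set low and high (top ~1%) using anti-HA fluorescence for expression and streptavidin fluorescence for binding of the Sf9 membrane reagent. Each polyreactivity label is drawn from the gate of origin.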

Sequence	polyreactivity (PSR sort gate)
QVQLVESGGGLVQAGGSLRLSCAASGSTFIEYAMGWYRQAPGTERELVAGITTSSGRTSYADSVKGRFSISRDNAKNTVYLQMNSLKPEDTAVYYCAADIYYYSPYDSFWYSEVDYWGQGTQVTVSS	low polyreactivity
QVQLVESGGGLVQAGGSLRLSCAASGSTFIFNTMGWYRQAPGKEREVVASITGDGRTNYADSVKGRFTISRDNAKNTVYLQMNSLKPEDTAVYYCAADGYDQYPLWAPPGDYWGQGTQVTVSS	low polyreactivity
QVQLVESGGGLVQAGGSLRLSCAASGSTFIFYAMGWYRQAPGKERELVASITSRAASTYYADSVKGRFTFSRDNAKNTVYFQMNSLKPEVTAVYYCAANFSYTLFWWSSFLLYVYWGQGTQVTVSS	low polyreactivity
QVQLVESGGGLVQAGGSLRLSCAASGSTFIFYTMGWYRQAPGKERELVAAITSNGGSTYYADSVKGRFTISRDNAKNTVYLQMNSLKPEDTAVYYCARVDRWRRYRYIFSGYDYWGQGTQVTVSS	high polyreactivity
QVQLVESGGGLVQAGGSLRLSCAASGSTFIGYAMGWYRQAPGKERELVAGIRWSGGRTYYADSVKGRFTISRDNAKNTVYLHMNSLKPEDTAVYYCNARFYASAKGYDYWGQGTQVTVSS	low polyreactivity
QVQLVESGGGLVQAGGSLRLSCAASGSTFIGYAMGWYRQAPGKERELVASISWGGGSTYYADSVKGRFTISRDNAKNTVYLQQNSLIPEDTAVYYCNTYYWFSGCPYDYWGQGTQVTVSS	low polyreactivity
QVQLVESGGGLVQAGGSLRLSCAASGSTFIGYTMGWYRQAPGKERELVAAISTSGARTYYADSVKGRFTISRDNAKNTVYLQMNSLKPEDTAVYYCAARAIYKSKYDYWGQGTQVTVSS	high polyreactivity
QVQLVESGGGLVQAGGSLRLSCAASGSTFILYAMGWYRQAPGKERELVAAITSRGGSTYYADSVKGRFTISRDNAKNTVYLQMNSLKPEDTAVYYCAADNGYIGPKPYFLAYPVGYDSWGQGTQVTVSS	low polyreactivity
QVQLVESGGGLVQAGGSLRLSCAASGSTFINYAMGWYRQAPGKERELVAVITSDDGSTYYADSVKGRFTISRDNAKNTVYLQMNSLKPEDTAVYYCAADYYDQRYRPGPWYDYWGQGTQVTVSS	low polyreactivity
QVQLVESGGGLVQAGGSLRLSCAASGSTFIPNAMGWYSQAPGKERELVAAISTGGSTNYADSVKGRFTISRDNAKNTVYLQMNSLKPEDTAVYYCNARRGYYNPGRRFYYWGQGTQVTVSS	low polyreactivity
QVQLVESGGGLVQAGGSLRLSCAASGSTFIRNAMGWYRQAPGKERELVAAITTDGSTDYADSVKGRFTISRDNAKNTVYLQMNSLKPEDTAVDYCNAEYRLDALSYDYLGQGTQVTVSS	low polyreactivity
QVQLVESGGGLVQAGGSLRLSCAASGSTFIRNTMGWYRQAPGKERELLAAISRSGVRTYYADSVKGRFTISRDNAKNTVYLQINSLKPEDTAVSYCAAVSSLSYSFPYDYWGQGTQVTVST	high polyreactivity
QVQLVESGGGLVQAGGSLRLSCAASGSTFIRYAMGWYRQAPGKERELVAAIRRTGASTYYADSVKGRFTISRDNAKNTVYLQMNSLKPEDTAVYYCAARYSIWSWNGLDYWGQGTQVTVSS	high polyreactivity
QVQLVESGGGLVQAGGSLRLSCAASGSTFISNTIGWYRQAPGKERELVAAISSGGDTSYADSVKGRFTISRDNAKNTVYLQMNILKPEDTAVYYCNVDTSATSYSSEYDYWGQGTQVTVSS	low polyreactivity
QVQLVESGGGLVQAGGSLRLSCAASGSTFISYAMGWYRPAPGKERELVAAISRNGGSTDYADSVKGRFTISRDNAKNSVYLQMNSLKPEHTAVYYCAAEYDTWWGGYDYWGQGTQVTVSS	high polyreactivity
QVQLVESGGGLVQAGGSLRLSCAASGSTFITNAMGWYRQAPGKERELVAAISSSGGSTYYADSVKGRFTISRDNAKNTVYLQMNSLKPEDTAVYYCNAVPYVPRFDYWGQGTQVTVSS	low polyreactivity
QVQLVESGGGLVQAGGSLRLSCAASGSTFITNIMGWYRQAPGKERELVAAISYIDGTTYYADSVKGRFTISRDNAKNTVYLQMNSLKPEDTAVYYCAAYPYLYPLRFEEYDHWGQGTQVTVSS	low polyreactivity
QVQLVESGGGLVQAGGSLRLSCAASGSTFITNSMGWYRQAPGKERELVAAITYSTGGTYYADSVKGRFTISRDNAKNTVYLQMNSLKPEDTAVYYCAALLYFFLYDYWGQGTQVSVSS	low polyreactivity
QVQLVESGGGLVQAGGSLRLSCAASGSTFITYAMGWSRQAPGKERELVAAISDSGGDTYYADSVKGRFTISRDYAKNTVYLQMISLNPEDTAVFYCAAEDDRYVYGDMNYWGQGTQVTVSS	low polyreactivity
QVQLVESGGGLVQAGGSLRLSCAASGSTFITYAMGWYRQAPGKERELVAAIRWSGGGTYYADSVKGRFTISRDTAKNTVYLQMNSLKPEDTAVYYCAADHFNYTTGRDYWGQGTQVTVSS	low polyreactivity
QVQLVESGGGLVQAGGSLRLSCAASGSTFIVYGMGWYRQAPGKEREFVAAITTRSGSTYYADSVKGRFTISRDNAKNTVYLQMNSLKPEDTAVYYCAAVPGTPRHDYWGQGTQVTVSS	high polyreactivity
QVQLVESGGGLVQAGGSLRLSCAASGSTFIYYAMGWYRQAPGKERELVAAISGSGASTYYADSVKGRFTISRDNAKNTVYLQMNSLKPEDTAVYYCAARSYGITDYGMYSWGQGTQVTVSS	high polyreactivity

Sequence	polyreactivity (PSR sort gate)
QVQLVESGGGLVQAGGSLRLSCAASGSTFIYYAMGWYRQAPGKERELVAAISKRGGNTYYADSVKGRFTISRDNAKNTVYLQMNSLKPEDTAVYYCAARVYGTSRRYYSWGQGTQVTVSS	high polyreactivity
QVQLVESGGGLVQAGGSLRLSCAASGSTFIYYARGWYRQAPGKERELVASISRSGGSPYYADSVKGRFTISRDNAKNTVYLQMNSLKPEATAVYDCARAYRSSFNYWGQGTQVTVSS	high polyreactivity
QVQLVESGGGLVQAGGSLRLSCAASGSTFKDNAMGWYIQAPGKERELVASITGRGGSTYYADSVKGRFTISRDNAKNTVYLHMNSLKPEDTAVYYCAARAYYGVYKSPYDYWGQGTQVTVSS	high polyreactivity
QVQLVESGGGLVQAGGSLRLSCAASGSTFKFYAMGWYRQAPGKERELVAAISGSSGSTYYADSVKGRFTISRDNAKNTVYLQMNSLKPEDTAVYYCNTQYSRYYTRYSAYDYWGQGTQVTVSS	low polyreactivity
QVQLVESGGGLVQAGGSLRLSCAASGSTFKHYAMGWYRQAPGKERELVAAISSGGSTKYADSVKGRFTISRDNAKNTVYLQMNSLKPEDTAVYYCAARSFFKMYYWGQGTQVTVSS	low polyreactivity
QVQLVESGGGLVQAGGSLRLSCAASGSTFKIYAMAWYRQAPGKERELVAAITGSGGSTYYADSVKGRFTISRDNAKNTVYLQMNSLKPEDTAVYYCAVDVYYYVATEFYEYDYWGQGTQVTVSS	high polyreactivity
QVQLVESGGGLVQAGGSLRLSCAASGSTFKIYAMGWYRQAPGKERELVAAITRSGGSTYYADSVKGRFTISRDNAKNTVYLQMNSLKPEDTAVYYCAASRFTSYGIDYDYWGQGTQVTVSS	high polyreactivity
QVQLVESGGGLVQAGGSLRLSCAASGSTFKPYAMGWYRQAPGKERELVAAITWTGGSTYYADSVKGRFTISRDNAKNTVYLEMNSLKPDDTAVYYCNAYLRWYITLLRYLAGGDYWGQGTQVTVSS	high polyreactivity
QVQLVESGGGLVQAGGSLRLSCAASGSTFKPYTMGWYRQAPGKERELVAGISSVDSTDYADSVKGRFTISRDNAKNTVYLQMNSLKPEDTAVYYCNKRKWPTFTYAMNYWGQGTQVSVSS	low polyreactivity
QVQLVESGGGLVQAGGSLRLSCAASGSTFKQYAMGLYRQAPGTERELVAVITWRGGRTYYADSVKGRFTISRDYAKNTVYLQMNSLKPEDTAVYYCAADYFSFIPGYDYWGQGTQVTVSS	high polyreactivity
QVQLVESGGGLVQAGGSLRLSCAASGSTFKQYAMGWYRQAPGKERELVAAISRSGSRTYYADSVKGRFTISRDNAKNTVYLQMNSLIPEDTAVYYCAAERRSTAGWLYDYWGQGTQVTVSS	high polyreactivity
QVQLVESGGGLVQAGGSLRLSCAASGSTFKRNAMGWYRQAPGIERELVAAISYSGGSTYYADSMKGRFTISRDNAKNTVYLQMNSLKPEDTAVYYCWGPGTQVTVSS	low polyreactivity
QVQLVESGGGLVQAGGSLRLSCAASGSTFKRYAMGWYRQAPGKEREFVAGISSRGSRTYYADSVKGRFTISRDNAKNTVYLQMNSLKPEDTAGYYCAVSGNHVSPPYGYWGQGTQVTVSS	high polyreactivity
QVQLVESGGGLVQAGGSLRLSCAASGSTFKRYAMGWYRQPPGKERELVASISSGGSTNYADSVKGRFTISRDNAKNSVYLQMNSLKPEDTAVYYCAAGYHVSTRGLIGHFDYWGQGTQVTVSS	high polyreactivity
QVQLVESGGGLVQAGGSLRLSCAASGSTFKRYVMGWYRQAPGKERELVAAISSRGGSTYYADSVKGRFTISRDNAKNTVYLQMNSLKPEDTAVYYCASANVRAEDYWGQGTQVTVSS	high polyreactivity
QVQLVESGGGLVQAGGSLRLSCAASGSTFKVNDMGWYRQAPGKERELVAAIDKSGGTTYYADSVKGRFTISRDNAKNTVYLQMNSLKPEDTAVYYCAADVIYEMDYWGQGTQVTVSS	low polyreactivity
QVQLVESGGGLVQAGGSLRLSCAASGSTFKWTAMGWYRPAPGKERELVAAITGSGTGTYYADSVKGRFTISRDNAKNTVYLQMNSLKPEDTAVYYCAAYVYGYKYYYWGQGTQVTVSS	high polyreactivity
QVQLVESGGGLVQAGGSLRLSCAASGSTFKWYAMGWYRQAPGKERELVAAITRGGSTSYADSVKGRFTISLDNAKNTVYLQMNSLKPEDTAVYYCAADYHYTKSMYYWGQGTQVTVSS	low polyreactivity
QVQLVESGGGLVQAGGSLRLSCAASGSTFKYNTMGWYRQAPGKESELVARISWSGTRTYYADSVKGRFTISRYNAKNTVYLQMNSLKPEDTAVYYCAKVSYFWSPYGYDSCGQGTQVTVSS	high polyreactivity
QVQLVESGGGLVQAGGSLRLSCAASGSTFKYYAMGWYRQAPGKEREFVAAITANGGRTYYADSVKGRFTISRDNAKNTVYLQMNSLKPEDTAVYYCAARTWYYYVYGYESWGQGTQVTVSS	high polyreactivity
QVQLVESGGGLVQAGGSLRLSCAASGSTFKYYAMGWYRQAPGKEREFVASINWSGVSTYYADSVKGRFTISRDNAKNTVYLQMNSLKPEDTAVYYCAARVRGKYDYWGQGTQVTVSS	high polyreactivity

— the nanobody polyreactivity screen of Harvey et al. (2022)
